T1: recombinant soluble CD30 (sCD30) produced in E. coli (human)
T1 sequence: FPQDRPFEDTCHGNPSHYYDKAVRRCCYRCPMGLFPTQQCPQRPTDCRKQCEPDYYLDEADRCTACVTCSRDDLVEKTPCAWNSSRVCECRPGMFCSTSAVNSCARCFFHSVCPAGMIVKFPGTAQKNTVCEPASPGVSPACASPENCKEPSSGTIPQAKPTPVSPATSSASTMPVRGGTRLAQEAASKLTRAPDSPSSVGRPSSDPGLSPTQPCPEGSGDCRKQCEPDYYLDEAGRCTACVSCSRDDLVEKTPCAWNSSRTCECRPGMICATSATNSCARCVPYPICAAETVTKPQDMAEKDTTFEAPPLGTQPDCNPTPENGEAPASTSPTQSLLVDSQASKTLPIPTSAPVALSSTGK

T2: CD30-Fc (human)
T2 sequence: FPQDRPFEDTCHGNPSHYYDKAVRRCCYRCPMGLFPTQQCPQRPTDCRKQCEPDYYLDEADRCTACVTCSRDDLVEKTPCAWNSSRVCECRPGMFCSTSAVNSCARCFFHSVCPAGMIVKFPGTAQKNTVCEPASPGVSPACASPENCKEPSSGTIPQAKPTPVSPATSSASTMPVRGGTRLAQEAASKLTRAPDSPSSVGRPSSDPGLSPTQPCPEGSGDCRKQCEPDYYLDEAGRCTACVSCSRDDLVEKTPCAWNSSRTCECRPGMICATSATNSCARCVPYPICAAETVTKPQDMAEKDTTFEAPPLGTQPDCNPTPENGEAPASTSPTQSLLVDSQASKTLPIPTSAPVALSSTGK


Legend:
[1] = target: human CD30, native, expressed on cells (human); assay: cell-based or functional assay
[2] = target: T1, recombinant soluble CD30 (sCD30) produced in E. coli (human); assay: SPR (BIAcore), sCD30 immobilized
[3] = target: T1, recombinant soluble CD30 (sCD30) produced in E. coli (human); assay: indirect ELISA, sCD30 coated
CD30-Fc (human) = target: T2, CD30-Fc (human); assay: affinity of the MAb; ELISA using CD30-Fc
[4] = target: human CD30, native, expressed on cells (human); assay: FACS, L428 cells, MAb 5 µg/ml; HeFi-I is the control itself
[5] = target: human CD30, native, expressed on cells (human); assay: FACS, L540 cells, MAb 5 µg/ml; HeFi-I is the control itself
[6] = target: T1, recombinant soluble CD30 (sCD30) produced in E. coli (human); assay: SPR (BIAcore), sCD30 immobilized; not corrected for bivalency
[7] = target: human CD30, native, expressed on cells (human); assay: competitive FACS on L540 cells, unlabeled MAb 2.5 µg/ml; competitor: biotin-T6
[8] = target: human CD30, native, expressed on cells (human); assay: competitive FACS on L540 cells, unlabeled MAb 2.5 µg/ml; competitor: biotin-T14
[9] = target: human CD30, native, expressed on cells (human); assay: competitive FACS on L540 cells, unlabeled MAb 2.5 µg/ml; competitor: biotin-T24
[10] = target: human CD30, native, expressed on cells (human); assay: competitive FACS on L540 cells, unlabeled MAb 2.5 µg/ml; competitor: biotin-T25
[11] = target: human CD30, native, expressed on cells (human); assay: competitive FACS on L540 cells, unlabeled MAb 2.5 µg/ml; competitor: biotin-HRS-4
[12] = target: human CD30, native, expressed on cells (human); assay: competitive FACS on L540 cells, unlabeled MAb 2.5 µg/ml; competitor: biotin-HeFi-I

Binder | IC50, cytotoxicity on A431 cells stably transfected with CD30 [1] | Kd [2] | koff [2] | kon [2] | titer in ELISA [3] | Kd (CD30-Fc (human)) | relative reactivity in FACS (% of control) [4] | relative reactivity in FACS (% of control) [5] | Kd [6] | koff [6] | kon [6] | inhibition of the binding of biotin-MAb (%) [7] | inhibition of the binding of biotin-MAb (%) [8] | inhibition of the binding of biotin-MAb (%) [9] | inhibition of the binding of biotin-MAb (%) [10] | inhibition of the binding of biotin-MAb (%) [11] | inhibition of the binding of biotin-MAb (%) [12]
CL2(scFv)-PE38 (scFv, V domains shown) VH: EVQLKQSGTELVKPGASVKLSCKASGYTFTSYWMHWVKQRPGQGLEWIGNINPSNGGTNYNEKFKSKATLTIDKSSSTAYMQLSSLTSEDSAVYYCARRTETAQASPFAYWGQGTLVTVSS VL: DIVMTQSHKFMSTSVGDRVSVTCKASQNVGTNVAWYQQKPGQSPKALIYSASTRYSGVPDRFTGSGSGTDFTLTISNVQSEDLAEYFCQQYNSYPFTFGSGTKLEIK | 2.5 ng/mL | 56 nM | 0.0022 s⁻¹ | 38000 M⁻¹ s⁻¹ |  |  |  |  |  |  |  |  |  |  |  |  | 
HeFi-I MAb (antibody, V domains shown) VH: EVKLVESGGGLVQPGGSLRLSCATSGFTFSDYYMNWVRQPPGKALEWLGFIRNKANGYTTEFSASVMGRFTISRDDSQSILYLQMNTLRAEDSATYYCARDPPYGNPHYYAMDYWGQGTSVTVSS VL: DIVLTQSPASLAVSLGQRATISCRASKSVSASGYNYMHWYQQKAGQPPKLLIHLASNLESGVPARFSGSGSGTDFTLNIHPVEEEDASTYYCQHSGELPFTFGSGTKLEIK |  |  |  |  | 105 mL/µg | 2.4 nM | 100 % of control | 100 % of control | 7.8 nM | 0.00054 s⁻¹ | 72000 M⁻¹ s⁻¹ | 0% | 0% | 33.4% | 8.4% | 0% | 98%
T7 MAb (antibody, V domains shown) VH: QVQLQQSGAELVRPGSSVKISCKASGYTFSSYWMNWMKQRPGQGLEWIGQIYPGDDDTNYNGKFKGKATLTADKSSSTAYMQLSSLTSEDSAVYFCARRETGRGAWFTYWGQGTLVTVSA VL: DIVLTQSPASLAVSLGQRATISCRASESLEYYGTTLMQWYQQKPGQPPKLLIYAASNVESGVPARFSGSGSGTDFSLNIHPVEEDDIAMYFCHQSRKVPSTFGGGTKLEIK |  |  |  |  |  | 3.5 nM |  |  |  |  |  |  |  |  |  |  | 
